According to patent US20250011391A1, “ULTRA LIGHT-SENSITIVE NEUROPSIN-BASED OPTOGENETIC TOOL FOR ACTIVATING G q-COUPLED SIGNALING AND/OR ACTIVATING CELLS” (GENANS BIOTECHNOLOGY CO., LTD, priority 2021, published 2025):

Tested on: astrocytes within the mouse S1 cortex
Test: In vivo two-photon imaging (920 nm) of ATP release (GRABATP sensor) following astrocyte activation
Protocol: The performance of cOpn5-mediated optogenetics in vivo is tested. Astrocytes represent an important population of non-excitable cells in the central nervous system, over which optogenetic tools have achieved only limited success to date^42. ATP is known as a messenger for inter-astrocyte communication; however, the real-time impacts of intracellular Ca^2+ on ATP release have not been visualized. Ultrasensitive GPCR Activation-Based ATP sensor GRABATP is used to monitor changes in extracellular ATP levels. Specifically, cOpn5 and the GRABATP sensor are expressed in the mouse S1 sensory cortex following the infusion of AAV vectors containing the GfaABC1D promoter (FIG. 6a), which is commonly used to drive gene expression in astrocytes.
Two-photon imaging of GRABATP signals from head-fixed awake, behaving mice is performed (FIG. 6a). It is initially expected that, in addition to the 920 nm light from pulsed laser for two-photon imaging, blue light pulses would be required to stimulate ATP signals. Strikingly, the 920 nm light itself, delivers for imaging, triggered massive ATP flashes in the cOpn5- and GRABATP-expressing mice, but not in mice that expressed the ATP sensor but lacked cOpn5 expression. Individual ATP flashes typically range in diameters of 20-100 μm and lasted for ˜1 min. The flash frequency gradually increases following ˜1 min of initial quiescence and peaked at the level of ˜50 flashes per min within the imaging area (640×640 μm^2) in ˜5 min (FIG. 6b, c and FIG. 7a). Moreover, high-frequency ATP flashes also occurs in the repeated trials (FIG. 7b).
a, Schematic diagram of the experimental setup for in vivo two-photon imaging (920 nm) of ATP release following cOpn5-mediated astrocyte activation. Images show the expression of cOpn5 (red) in astrocytes and the expression of a GRABATP sensor (green) in astrocytes within the mouse S1 cortex. Scale bar, 100 μm.

[1] = cOpn5- and GRABATP-expressing mice, 920 nm light

B1: cOpn5: Chicken (Gallus gallus) Opn5 (neuropsin) ortholog, SEQ ID NO:1, GenBank NM_001130743.1 (protein, listed as Gallus lafayetii)
chain: MSGMASDCNSSSQEEYLPHYVQQEDPFASKLSREADIIAGFYLTVIGILSTLGNGYVIFMSSKRKKKLRPAEIMTVNLAVCDLGISVVGKPFSIISFFSHRWIFGWMGCRWYGWAGFFFGCGSLITMTAVSLDRYLKICHLAYGTWLKRHHAFICLALIWAYATFWATVPFAGVGSYAPEPFGTSCTLDWWLAQASVAGQAFVLSILFFCLLFPTAVIVFSYVKIILKVKSSTKEVAHYDTRIQNSHILEMKLTKVAMLICAGFLIAWIPYAVVSVWSAFGQPDSVPIQFSVVPTLLAKSAAMYNPIIYQVIDCKFACCRSGGPKTLQKKSSLKESRMYTLSSHRDSAALSGTQLEV
For B1, which “initial quiescence before flash frequency increases” value (cOpn5- and GRABATP-expressing mice) is on record?
The value was about 1 min.

What about the “diameter of individual ATP flashes” value [1] of the same molecule?
Its value is 20-100 μm.

What about the “duration of individual ATP flashes” value [1] of the same molecule?
Its value is about 1 min.

And the “time to peak ATP flash frequency” value (cOpn5-expressing mice)?
The value was about 5 min.

What about the “ATP flash frequency versus proinflammatory (LPS) treatment of non-cOpn5-expressing mice” value (mouse, in vivo) of the same molecule?
Its value is about 25 times.

And the two-photon activation wavelength (pulsed laser for two-photon imaging)?
Its two-photon activation wavelength is at least 920 nm.

What about the “peak ATP flash frequency” value (within the imaging area (640×640 μm2), cOpn5-expressing mice) of the same molecule?
The value was about 50 flashes per min.
